Tests used:
human CD20 (human) [1] = target: human CD20 (human) (UniProt P11836); test: cell-based or functional assay
human CD20 (human) [2] = target: human CD20 (human) (UniProt P11836); test: Scatchard analysis, cold antibody against 125I-2H7.v16 on WIL2-S cells, n=3

human CD20 (human), sequence (P11836 whole entry): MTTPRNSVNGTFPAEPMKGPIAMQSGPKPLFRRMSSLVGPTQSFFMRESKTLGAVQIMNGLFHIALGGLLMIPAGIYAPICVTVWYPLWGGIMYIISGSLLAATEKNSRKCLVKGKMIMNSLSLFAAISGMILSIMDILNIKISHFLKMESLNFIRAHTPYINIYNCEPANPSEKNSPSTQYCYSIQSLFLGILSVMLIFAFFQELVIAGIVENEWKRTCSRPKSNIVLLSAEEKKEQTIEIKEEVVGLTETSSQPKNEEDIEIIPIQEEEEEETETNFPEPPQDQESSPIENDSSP

ADCC: EC50(variant)/EC50(2H7.v16) (human CD20 (human) [1]): 5.3 | ADCC: EC50(variant)/EC50(RITUXAN®) (human CD20 (human) [1]): 1 | CDC: EC50(variant)/EC50(RITUXAN®) (human CD20 (human) [1]): 1 | Kd (human CD20 (human) [2]): 0.99 nM
Substance: RITUXAN® (rituximab) (antibody)

— patent US20070031331A1
